B1: Transcriptional regulator ERG, residues 117 to 197; numbered along this chain, P11308 (parent)
chain: NMTTNERRVIVPADPTLWSTDHVRQWLEWAVKEYGLPDVNILLFQNIDGKELCKMTKDDFQRLTPSYNADILLSHLHYLRE

Here are results for 34 variants from the Human Domainome abundance scans (Beltran et al. 2025).

± gives the uncertainty stated by the source.

The series covers variants of B1. Briefly: abundance fitness (aPCA) (normalised: wild type 0, dead -1); higher = more abundant; growth selection in yeast, the domain comes from the species named. To be noted: Homo sapiens.
As for NMTTNERRVIVPADPTLWSTDHVRQWLEWAVKEYGLPDVMILLFQNIDGKELCKMTKDDFQRLTPSYNADILLSHLHYLRE [N40M], the abundance fitness is -0.413 ± 0.078.

For the variant NMTTNERRVIVPADPTLWSTDHVRQWLEWAVKEYGLPDVSILLFQNIDGKELCKMTKDDFQRLTPSYNADILLSHLHYLRE [N40S], the abundance fitness was -0.236 ± 0.05.

On to NMTTNERRVIVPADPTLWSTDHVRQWLEWAVKEYGLPDVYILLFQNIDGKELCKMTKDDFQRLTPSYNADILLSHLHYLRE [N40Y], for which the abundance fitness is -0.284 ± 0.086.

On to NMTTNERRVIVPADPTLWSTDHVRQWLEWAVKEYGLPDVQILLFQNIDGKELCKMTKDDFQRLTPSYNADILLSHLHYLRE [N40Q], for which the abundance fitness is -0.165 ± 0.063.

For NMTTNERRVIVPADPTLWSTDHVRQWLEWAVKEYGLPDVTILLFQNIDGKELCKMTKDDFQRLTPSYNADILLSHLHYLRE [N40T], the abundance fitness was -0.213 ± 0.058.

In the case of NMTTNERRVIVPADPTLWSTDHVRQWLEWAVKEYGLPDVIILLFQNIDGKELCKMTKDDFQRLTPSYNADILLSHLHYLRE [N40I], the abundance fitness is -0.317 ± 0.094.

For the variant NMTTNERRVIVPADPTLWSTDHVRQWLEWAVKEYGLPDVLILLFQNIDGKELCKMTKDDFQRLTPSYNADILLSHLHYLRE [N40L], the abundance fitness was -0.179 ± 0.044.

With NMTTNERRVIVPADPTLWSTDHVRQWLEWAVKEYGLPDVHILLFQNIDGKELCKMTKDDFQRLTPSYNADILLSHLHYLRE [N40H], the abundance fitness was -0.292 ± 0.077.

For the variant NMTTNERRVIVPADPTLWSTDHVRQWLEWAVKEYGLPDVGILLFQNIDGKELCKMTKDDFQRLTPSYNADILLSHLHYLRE [N40G], the abundance fitness was -0.4 ± 0.044.

As to NMTTNERRVIVPADPTLWSTDHVRQWLEWAVKEYGLPDVRILLFQNIDGKELCKMTKDDFQRLTPSYNADILLSHLHYLRE [N40R], the abundance fitness is -0.255 ± 0.039.

For NMTTNERRVIVPADPTLWSTDHVRQWLEWAVKEYGLPDVPILLFQNIDGKELCKMTKDDFQRLTPSYNADILLSHLHYLRE [N40P], the abundance fitness was -0.153 ± 0.06.

As to NMTTNERRVIVPADPTLWSTDHVRQWLEWAVKEYGLPDVNILLIQNIDGKELCKMTKDDFQRLTPSYNADILLSHLHYLRE [F44I], the abundance fitness is -0.497 ± 0.15.

On to NMTTNERRVIVPADPTLWSTDHVRQWLEWAVKEYGLPDVNILLCQNIDGKELCKMTKDDFQRLTPSYNADILLSHLHYLRE [F44C], for which the abundance fitness is -0.215 ± 0.068.

With NMTTNERRVIVPADPTLWSTDHVRQWLEWAVKEYGLPDVNILLHQNIDGKELCKMTKDDFQRLTPSYNADILLSHLHYLRE [F44H], the abundance fitness is -0.407 ± 0.15.

Take NMTTNERRVIVPADPTLWSTDHVRQWLEWAVKEYGLPDVNILLAQNIDGKELCKMTKDDFQRLTPSYNADILLSHLHYLRE [F44A]: the abundance fitness is -0.195 ± 0.042.

For the variant NMTTNERRVIVPADPTLWSTDHVRQWLEWAVKEYGLPDVNILLDQNIDGKELCKMTKDDFQRLTPSYNADILLSHLHYLRE [F44D], the abundance fitness was -0.067 ± 0.073.

NMTTNERRVIVPADPTLWSTDHVRQWLEWAVKEYGLPDVNILLGQNIDGKELCKMTKDDFQRLTPSYNADILLSHLHYLRE [F44G]: the abundance fitness is -0.382 ± 0.037.

As for NMTTNERRVIVPADPTLWSTDHVRQWLEWAVKEYGLPDVNILPFQNIDGKELCKMTKDDFQRLTPSYNADILLSHLHYLRE [L43P], the abundance fitness was -0.128 ± 0.064.

Turning to NMTTNERRVIVPADPTLWSTDHVRQWLEWAVKEYGLPDVNILKFQNIDGKELCKMTKDDFQRLTPSYNADILLSHLHYLRE [L43K], the abundance fitness turned out to be 0.071 ± 0.05.

For the variant NMTTNERRVIVPADPTLWSTDHVRQWLEWAVKEYGLPDVNILIFQNIDGKELCKMTKDDFQRLTPSYNADILLSHLHYLRE [L43I], the abundance fitness was -0.217 ± 0.15.

Take NMTTNERRVIVPADPTLWSTDHVRQWLEWAVKEYGLPDVNILVFQNIDGKELCKMTKDDFQRLTPSYNADILLSHLHYLRE [L43V]: the abundance fitness is -0.083 ± 0.035.

Regarding NMTTNERRVIVPADPTLWSTDHVRQWLEWAVKEYGLPDVNILQFQNIDGKELCKMTKDDFQRLTPSYNADILLSHLHYLRE [L43Q], the abundance fitness turned out to be 0.047 ± 0.052.

For NMTTNERRVIVPADPTLWSTDHVRQWLEWAVKEYGLPDVNILNFQNIDGKELCKMTKDDFQRLTPSYNADILLSHLHYLRE [L43N], the abundance fitness was -0.033 ± 0.096.

Regarding NMTTNERRVIVPADPTLWSTDHVRQWLEWAVKEYGLPDVNILRFQNIDGKELCKMTKDDFQRLTPSYNADILLSHLHYLRE [L43R], the abundance fitness was -0.029 ± 0.032.

Consider NMTTNERRVIVPADPTLWSTDHVRQWLEWAVKEYGLPDVNILDFQNIDGKELCKMTKDDFQRLTPSYNADILLSHLHYLRE [L43D], for which the abundance fitness was -0.006 ± 0.059.

Consider NMTTNERRVIVPADPTLWSTDHVRQWLEWAVKEYGLPDVNILFFQNIDGKELCKMTKDDFQRLTPSYNADILLSHLHYLRE [L43F], for which the abundance fitness is -0.105 ± 0.064.

Take NMTTNERRVIVPADPTLWSTDHVRQWLEWAVKEYGLPDVNILMFQNIDGKELCKMTKDDFQRLTPSYNADILLSHLHYLRE [L43M]: the abundance fitness was -0.063 ± 0.054.

Consider NMTTNERRVIVPADPTLWSTDHVRQWLEWAVKEYGLPDVNILWFQNIDGKELCKMTKDDFQRLTPSYNADILLSHLHYLRE [L43W], for which the abundance fitness is -0.079 ± 0.04.

As for NMTTNERRVIVPADPTLWSTDHVRQWLEWAVKEYGLPDVNILHFQNIDGKELCKMTKDDFQRLTPSYNADILLSHLHYLRE [L43H], the abundance fitness came out at 0.027 ± 0.079.

As for NMTTNERRVIVPADPTLWSTDHVRQWLEWAVKEYGLPDVNILTFQNIDGKELCKMTKDDFQRLTPSYNADILLSHLHYLRE [L43T], the abundance fitness stood at 0.07 ± 0.058.

For the variant NMTTNERRVIVPADPTLWSTDHVRQWLEWAVKEYGLPDVNILSFQNIDGKELCKMTKDDFQRLTPSYNADILLSHLHYLRE [L43S], the abundance fitness worked out at 0.041 ± 0.044.

Take NMTTNERRVIVPADPTLWSTDHVRQWLEWAVKEYGLPDVNILGFQNIDGKELCKMTKDDFQRLTPSYNADILLSHLHYLRE [L43G]: the abundance fitness was -0.019 ± 0.03.

NMTTNERRVIVPADPTLWSTDHVRQWLEWAVKEYGLPDVNILYFQNIDGKELCKMTKDDFQRLTPSYNADILLSHLHYLRE [L43Y]: the abundance fitness was -0.082 ± 0.072.

As to NMTTNERRVIVPADPTLWSTDHVRQWLEWAVKEYGLPDVNILCFQNIDGKELCKMTKDDFQRLTPSYNADILLSHLHYLRE [L43C], the abundance fitness was found to be 0.08 ± 0.056.
